B1: DVD2683 (bispecific antibody, IgG1)
VH: EVQLVESGGGLVQPGGSLRLSCAASGFTFSNYGVTWVRQAPGKGLEWVSMIWADGSTHYASSVKGRFTISRDNSKNTLYLQMNSLRAEDTAVYYCAREWQHGPVAYWGQGTLVTVSSGGGGSGGGGSEVTLRESGPGLVKPTQTLTLTCTLYGFSLSTSDMGVDWIRQPPGKGLEWLAHIWWDDVKRYNPALKSRLTISKDTSKNQVVLKLTSVDPVDTATYYCARTVSSGYIYYAMDYWGQGTLVTVSS
VL: DIQMTQSPSSLSASVGDRVTITCRASQLVSSAVAWYQQKPGKAPKLLIYWASARHTGVPSRFSGSGSGTDFTLTISSLQPEDFATYYCQQHYKTPFTFGQGTKLEIKRGGSGGGGSGDIQMTQSPSSLSASVGDRVTISCRASQDIRNYLNWYQQKPGKAPKLLIFYTSKLHSGVPSRFSGSGSGTDYTLTISSLQPEDIATYYCQQGLTPPLTFGGGTKVEIKR
notes: DVD-Ig; wt hIgG1 + kappa constants
B2: DVD2733 (bispecific antibody, IgG1)
VH: EVQLVESGGGLVQPGGSLRLSCAASGFTFSNYGVEWVRQAPGKGLEWVSGIWADGSTHYADTVKSRFTISRDNSKNTLYLQMNSLRAEDTAVYYCAREWQHGPVAYWGQGTLVTVSSGGGGSGGGGSEVTLRESGPGLVKPTQTLTLTCTLYGFSLSTSDMGVDWIRQPPGKGLEWLAHIWWDDVKRYNPALKSRLTISKDTSKNQVVLKLTSVDPVDTATYYCARTVSSGYIYYAMDYWGQGTLVTVSS
VL: DIQMTQSPSSLSASVGDRVTITCKASQLVSSAVAWYQQKPGKAPKLLIYWASTLHTGVPSRFSGSGSGTDFTLTISSLQPEDFATYYCQQHYRTPFTFGQGTKLEIKRGGSGGGGSGDIQMTQSPSSLSASVGDRVTISCRASQDIRNYLNWYQQKPGKAPKLLIFYTSKLHSGVPSRFSGSGSGTDYTLTISSLQPEDIATYYCQQGLTPPLTFGGGTKVEIKR
notes: as for B1
B3: DVD2684 (bispecific antibody, IgG1)
VH: EVQLVESGGGLVQPGGSLRLSCAASGFTFSNYGVTWVRQAPGKGLEWVSMIWADGSTHYASSVKGRFTISRDNSKNTLYLQMNSLRAEDTAVYYCAREWQHGPVAYWGQGTLVTVSSASTKGPEVTLRESGPGLVKPTQTLTLTCTLYGFSLSTSDMGVDWIRQPPGKGLEWLAHIWWDDVKRYNPALKSRLTISKDTSKNQVVLKLTSVDPVDTATYYCARTVSSGYIYYAMDYWGQGTLVTVSS
VL: DIQMTQSPSSLSASVGDRVTITCRASQLVSSAVAWYQQKPGKAPKLLIYWASARHTGVPSRFSGSGSGTDFTLTISSLQPEDFATYYCQQHYKTPFTFGQGTKLEIKRTVAAPDIQMTQSPSSLSASVGDRVTISCRASQDIRNYLNWYQQKPGKAPKLLIFYTSKLHSGVPSRFSGSGSGTDYTLTISSLQPEDIATYYCQQGLTPPLTFGGGTKVEIKR
notes: as for B1
B4: DVD2687 (bispecific antibody, IgG1)
VH: EVQLVESGGGLVQPGGSLRLSCAASGFTFSNYGVTWVRQAPGKGLEWVSMIWADGSTHYASSVKGRFTISRDNSKNTLYLQMNSLRAEDTAVYYCAREWQHGPVAYWGQGTLVTVSSASTKGPSVFPLAPEVTLRESGPGLVKPTQTLTLTCTLYGFSLSTSDMGVDWIRQPPGKGLEWLAHIWWDDVKRYNPALKSRLTISKDTSKNQVVLKLTSVDPVDTATYYCARTVSSGYIYYAMDYWGQGTLVTVSS
VL: DIQMTQSPSSLSASVGDRVTITCRASQLVSSAVAWYQQKPGKAPKLLIYWASARHTGVPSRFSGSGSGTDFTLTISSLQPEDFATYYCQQHYKTPFTFGQGTKLEIKRTVAAPDIQMTQSPSSLSASVGDRVTISCRASQDIRNYLNWYQQKPGKAPKLLIFYTSKLHSGVPSRFSGSGSGTDYTLTISSLQPEDIATYYCQQGLTPPLTFGGGTKVEIKR
notes: as for B1
B5: DVD2686 (bispecific antibody, IgG1)
VH: EVQLVESGGGLVQPGGSLRLSCAASGFTFSNYGVTWVRQAPGKGLEWVSMIWADGSTHYASSVKGRFTISRDNSKNTLYLQMNSLRAEDTAVYYCAREWQHGPVAYWGQGTLVTVSSASTKGPEVTLRESGPGLVKPTQTLTLTCTLYGFSLSTSDMGVDWIRQPPGKGLEWLAHIWWDDVKRYNPALKSRLTISKDTSKNQVVLKLTSVDPVDTATYYCARTVSSGYIYYAMDYWGQGTLVTVSS
VL: DIQMTQSPSSLSASVGDRVTITCRASQLVSSAVAWYQQKPGKAPKLLIYWASARHTGVPSRFSGSGSGTDFTLTISSLQPEDFATYYCQQHYKTPFTFGQGTKLEIKRTVAAPSVFIFPPDIQMTQSPSSLSASVGDRVTISCRASQDIRNYLNWYQQKPGKAPKLLIFYTSKLHSGVPSRFSGSGSGTDYTLTISSLQPEDIATYYCQQGLTPPLTFGGGTKVEIKR
notes: as for B1
B6: DVD2736 (bispecific antibody, IgG1)
VH: EVQLVESGGGLVQPGGSLRLSCAASGFTFSNYGVEWVRQAPGKGLEWVSGIWADGSTHYADTVKSRFTISRDNSKNTLYLQMNSLRAEDTAVYYCAREWQHGPVAYWGQGTLVTVSSASTKGPEVTLRESGPGLVKPTQTLTLTCTLYGFSLSTSDMGVDWIRQPPGKGLEWLAHIWWDDVKRYNPALKSRLTISKDTSKNQVVLKLTSVDPVDTATYYCARTVSSGYIYYAMDYWGQGTLVTVSS
VL: DIQMTQSPSSLSASVGDRVTITCKASQLVSSAVAWYQQKPGKAPKLLIYWASTLHTGVPSRFSGSGSGTDFTLTISSLQPEDFATYYCQQHYRTPFTFGQGTKLEIKRTVAAPSVFIFPPDIQMTQSPSSLSASVGDRVTISCRASQDIRNYLNWYQQKPGKAPKLLIFYTSKLHSGVPSRFSGSGSGTDYTLTISSLQPEDIATYYCQQGLTPPLTFGGGTKVEIKR
notes: as for B1
B7: DVD2737 (bispecific antibody, IgG1)
VH: EVQLVESGGGLVQPGGSLRLSCAASGFTFSNYGVEWVRQAPGKGLEWVSGIWADGSTHYADTVKSRFTISRDNSKNTLYLQMNSLRAEDTAVYYCAREWQHGPVAYWGQGTLVTVSSASTKGPSVFPLAPEVTLRESGPGLVKPTQTLTLTCTLYGFSLSTSDMGVDWIRQPPGKGLEWLAHIWWDDVKRYNPALKSRLTISKDTSKNQVVLKLTSVDPVDTATYYCARTVSSGYIYYAMDYWGQGTLVTVSS
VL: DIQMTQSPSSLSASVGDRVTITCKASQLVSSAVAWYQQKPGKAPKLLIYWASTLHTGVPSRFSGSGSGTDFTLTISSLQPEDFATYYCQQHYRTPFTFGQGTKLEIKRTVAAPDIQMTQSPSSLSASVGDRVTISCRASQDIRNYLNWYQQKPGKAPKLLIFYTSKLHSGVPSRFSGSGSGTDYTLTISSLQPEDIATYYCQQGLTPPLTFGGGTKVEIKR
notes: as for B1
B8: DVD2734 (bispecific antibody, IgG1)
VH: EVQLVESGGGLVQPGGSLRLSCAASGFTFSNYGVEWVRQAPGKGLEWVSGIWADGSTHYADTVKSRFTISRDNSKNTLYLQMNSLRAEDTAVYYCAREWQHGPVAYWGQGTLVTVSSASTKGPEVTLRESGPGLVKPTQTLTLTCTLYGFSLSTSDMGVDWIRQPPGKGLEWLAHIWWDDVKRYNPALKSRLTISKDTSKNQVVLKLTSVDPVDTATYYCARTVSSGYIYYAMDYWGQGTLVTVSS
VL: DIQMTQSPSSLSASVGDRVTITCKASQLVSSAVAWYQQKPGKAPKLLIYWASTLHTGVPSRFSGSGSGTDFTLTISSLQPEDFATYYCQQHYRTPFTFGQGTKLEIKRTVAAPDIQMTQSPSSLSASVGDRVTISCRASQDIRNYLNWYQQKPGKAPKLLIFYTSKLHSGVPSRFSGSGSGTDYTLTISSLQPEDIATYYCQQGLTPPLTFGGGTKVEIKR
notes: as for B1
B9: DVD2691 (bispecific antibody, IgG1)
VH: EVTLRESGPGLVKPTQTLTLTCTLYGFSLSTSDMGVDWIRQPPGKGLEWLAHIWWDDVKRYNPALKSRLTISKDTSKNQVVLKLTSVDPVDTATYYCARTVSSGYIYYAMDYWGQGTLVTVSSASTKGPEVQLVESGGGLVQPGGSLRLSCAASGFTFSNYGVTWVRQAPGKGLEWVSMIWADGSTHYASSVKGRFTISRDNSKNTLYLQMNSLRAEDTAVYYCAREWQHGPVAYWGQGTLVTVSS
VL: DIQMTQSPSSLSASVGDRVTISCRASQDIRNYLNWYQQKPGKAPKLLIFYTSKLHSGVPSRFSGSGSGTDYTLTISSLQPEDIATYYCQQGLTPPLTFGGGTKVEIKRTVAAPSVFIFPPDIQMTQSPSSLSASVGDRVTITCRASQLVSSAVAWYQQKPGKAPKLLIYWASARHTGVPSRFSGSGSGTDFTLTISSLQPEDFATYYCQQHYKTPFTFGQGTKLEIKR
notes: as for B1
B10: AB399 (antibody, V domains shown)
VH: EVQLVQSGAEVKKPGASVKVSCKASGYTFTSYWMHWVRQAPGQGLEWIGNINPKGGSNIYNEKFQGRVTMTRDTSISTAYMELSRLRSDDTAVYYCARLDYFGDSFDLWGQGTTVTVSS
VL: DIQMTQSPSSLSASVGDRVTITCRASQGIRNYLNWYQQKPGKAPKLLIYYASNLEVGVPSRFSGSGSGTDYTLTISSLQPEDFATYYCQQDNRFPYTFGGGTKVEIKR
notes: parent antibody
B11: AB398 (antibody, V domains shown)
VH: EVQLVQSGAEVKKPGASVKVSCKASGYTFTTYGVSWVRQAPGQGLEWMGEIYPGNYNTYYNEKFRGRVTMTTDTSTSTAYMELRSLRSDDTAVYYCARWRTSYFSDYGYFDYWGQGTTVTVSS
VL: DVVMTQSPLSLPVTLGQPASISCRSSQSLVHSHGNTYLHWYQQRPGQSPRLLIYTVSNRFSGVPDRFSGSGSGTDFTLKISRVEAEDVGVYYCSQSTHVPYTFGGGTKVEIKR
notes: parent antibody

molecular target: Recombinant Human IL-13 (human, UniProt P35225 35-146, limits assumed); assay: Biacore SPR
Sequence (P35225 35-146 limits assumed): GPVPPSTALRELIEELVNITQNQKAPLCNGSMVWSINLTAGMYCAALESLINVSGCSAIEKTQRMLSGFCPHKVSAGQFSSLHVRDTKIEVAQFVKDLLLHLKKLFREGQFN
Description: The BIACORE assay (GE, Healthcare Piscataway, N.J.) determined the affinity of antibodies or DVD-Ig with kinetic measurements of on-rate and off-rate constants. Binding of antibodies or DVD-Ig proteins to a target antigen (for example, a purified recombinant target antigen) was determined by surface plasmon resonance-based measurements with a Biacore T200 using running HBS-EP+buffer from GE Healthcare at 25° C. All chemicals were obtained from GE Healthcare or otherwise from a different source as described in the text. For example, approximately 5000 RU of goat anti-mouse IgG, (Fcγ), fragment specific polyclonal antibody (Pierce Biotechnology Inc, Rockford, Ill.) diluted in 10 mM sodium acetate (pH 4.5) was directly immobilized across a CM5 research grade biosensor chip using a standard amine coupling kit according to manufacturer's instructions. Unreacted moieties on the biosensor surface were blocked with ethanolamine. Modified carboxymethyl dextran surface in flowcell 1 was used as a reference surface. Rate constants were derived by making kinetic binding measurements at different antigen concentrations ranging from 0.8-100 nM. Binding was recorded as a function of time and kinetic rate constants were calculated. In this assay, association rate was evaluated for 5 min and dissociation was monitored for 10 min. For kinetic screening analysis, rate equations derived from the 1:1 binding model were fitted simultaneously to association and dissociation phases of all injections (using global fit analysis with Rmax fit locally to account for capture variations) with the use of Biaevaluation software. Purified antibodies or DVD-Ig proteins were diluted in HEPES-buffered saline for capture across goat anti-mouse IgG specific reaction surfaces. Antibodies or DVD-Ig proteins to be captured as a ligand were injected over reaction matrices at a flow rate of 5 μl/minute. The association and dissociation rate constants, kₒₙ (M⁻¹ s⁻¹) and koff (s⁻¹) were determined under a continuous flow rate of 50 μl/minute. Rate constants were derived by making kinetic binding measurements at different antigen concentrations ranging from 0.8-100 nM. Binding was recorded as a function of time and kinetic rate constants were calculated. In this assay, association rate was evaluated for 5 min and dissociation was monitored for 10 min.

Kd [nM]	koff [s⁻¹]	kon [M⁻¹ s⁻¹]	Binder
0.87	5.9e-05	68000	B1
1.1	8.6e-05	79000	B2
1.2	5.9e-05	48000	B3
0.47	5e-05	110000	B4
0.32	4.4e-05	140000	B5
0.3	4.6e-05	150000	B6
0.5	6.2e-05	120000	B7
0.82	4.8e-05	58000	B8
0.13	0.00013	950000	B9
0.019	6.4e-05	3.4e+06	B10
0.045	2.8e-05	630000	B11

— patent US20140271457A1 (AbbVie / Abbott, published 2014)
